In test [1] the target is Native bovine (β, γ)-actin, P60712;P63258. Briefly: TIRFM (KD calculated from koff and kon).
Test [2] shares this target. The experiment in a line: single molecule TIRFM assay (linear fit of kobs against CP concentration). Particulars: Cy5-UTRN261N (10 nM), profilin-actin (2 μM), TMR-CP.
The target is the same in test [3]. The experiment in a line: TIRFM single-filament re-growth assay after CP washout (mono-exponential fit). Particulars: Cy5-UTRN261N (10 nM), profilin-actin (2 μM), myotrophin/V1 (20 nM) after CP washout.
Another test addresses Actin (Homo sapiens) (UniProt P60709). The conditions noted are these: cited from earlier work.

Turning to “Murine heterodimeric capping protein (α1, β2), wildtype (from UniProt P47753;P47757-2) αY277V”, the Kd (in general, the constant that tells how readily two partners part at equilibrium) in test [1] is 0.3 nM. Moreover, the kon (usually the second-order rate constant of association) in test [2] was 8.68e+06 M⁻¹ s⁻¹. The substance also came in with a koff in test [3] of 2.6 s^-1·10^-3.

Profilin (from UniProt P07737): in the test with Actin (Homo sapiens), the Kd is 19 nM.

The record behind these values is publication PMC8429771.
